From patent US20080213836A1

Tests used:
[1] = target: Medaka EP-2 serine protease domain (Oryzias latipes (Japanese Medaka)); experiment: cell-based or functional assay
[2] = target: Medaka EP-1 serine protease domain (wild-type) (Oryzias latipes (Japanese Medaka)); experiment: cell-based or functional assay
Medaka EP-1 serine protease domain (wild-type) (Oryzias latipes (Japanese Medaka)), sequence (chain, as listed by the source limits assumed): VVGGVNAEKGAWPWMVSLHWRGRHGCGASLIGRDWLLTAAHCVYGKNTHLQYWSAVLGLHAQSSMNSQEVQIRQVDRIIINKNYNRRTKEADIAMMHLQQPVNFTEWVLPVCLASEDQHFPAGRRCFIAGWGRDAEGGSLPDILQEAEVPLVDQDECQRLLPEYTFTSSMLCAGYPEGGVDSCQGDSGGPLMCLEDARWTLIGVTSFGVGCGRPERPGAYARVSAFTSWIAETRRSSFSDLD

Substance: SBTI (from UniProt P01070 25-205)
- Inhibition (%) of GD4K-βNA hydrolysis at 0.1 mg/ml [1]: 99%
- Inhibition (%) of GD4K-βNA hydrolysis at 0.1 mg/ml [2]: 99%
